Legend:
[1] = molecular target: T1, interaction between Gal3 and TIM-3 (Mus musculus, UniProt P16110); assay: Blocking ELISA, mouse Gal3 coated plate and mouse TIM-3 Fc; format: binding; settings: mGal3 coated plate, mouse TIM-3 Fc
T1 construct: purchased BioLegend (mouse Gal3); R&D systems (mouse TIM-3 Fc)
Experimental: ELISA assays were also performed to test the interaction between Gal3 and TIM-3. 96 well ELISA plates (ThermoFisher Scientific) were coated with mouse Gal3 protein (BioLegend, San Diego, Calif.) in PBS or human Gal9 protein (R&D systems) in PBS or phosphatidylserine (PS) (Sigma) in ethanol and incubated at 4° C. for overnight. The plate was washed three times with TBST and then blocked with PBS buffer containing 2% BSA at room temperature for 1 hour. In FIG. 5A, different anti Gal3 antibodies, i.e. mGal3 polyclonal antibody (R&D systems), mAb IMT001 (also described in WO 2019/023247, hereby expressly incorporated by reference in its entirety), mAb M3/38 (Thermofisher Scientific) (FIG. 5A), were added to well that has been coated with Gal3. The antibodies were incubated for 10 minutes and mouse TIM-3 Fc were then added to the plates and incubated for an additional one-hour incubation. Plates were then washed for three times and followed by incubation with anti-human-IgG-HRP (Jackson ImmunoResearch) for 1 h at room temperature. The color was developed with TMB subtract (GeneTex, Irvine, Calif.) after three time washes with TBST and the reaction was terminated with 1N HCl. The optical density (OD) was read at 450 nm. The results were expressed as the average OD of duplicates±SD. […]

[2] = tested on: MC38 murine colon adenocarcinoma cells; assay: Primary mouse MC38 colon tumor model; format: in vivo
Experimental: On the day of tumor implantation, MC38 murine colon adenocarcinoma cells were collected, washed and resuspended in PBS. Mice were anesthetized by inhalation anesthetic (3 to 5% Isoflurane in medical grade air). 5×10^5 cells in 0.1 mL PBS were subcutaneously injected into the right flank of mice by using a syringe with a 25-ga needle. On day 7, the tumor volumes were measured and mice were randomly assigned into two groups (n=8). […] The tumor volumes and body weights were monitored twice per week. The animals were humanely sacrificed when tumor volume reached 3000 mm^3. Results were expressed as mean±SEM.

[3] = tested on: RAW macrophages/DO11.10 T cell mixed reaction; assay: Mixed Lymphocyte Reaction, RAW macrophages/DO11.10 T cells, IL-2; format: cell-based, mouse; settings: 10 μg/ml, overnight, vs mIgG
Experimental: RAW mouse macrophage cells were mixed with […] mouse T cells at 1:1 ratio, treated with OVA peptide, and cultured in the presence of mIgG (BD Biosciences), anti mPD1 antibody 29F (BioXCell) or IMT001 at 10 μg/ml for overnight 37° C. 50 μl of the culture medium was taken for mIL-2 measurement. The mIL-2 production was measured according to the commercial kit mouse IL-2 Elisa Ready-SET-Go from eBioscience.

[4] = molecular target: T2, interaction of Gal3 and TIM-3 (Homo sapiens, UniProt P17931); assay: Gal3-TIM-3 interaction blockade ELISA (Example 13); format: binding; settings: antibody at 20 ug/ml
T2 construct: full-length human Galectin-3 protein (Acro Biosystems, GA3-H5129); linker-spaced 6-histidine tag; purchased Acro Biosystems GA3-H5129 (Gal3); TM3-H5229 (TIM-3)
Experimental: To identify Gal3-targeted antibodies with the ability to block the interaction of Gal3 and TIM-3, purified Gal3 and TIM-3 proteins were incubated in the presence (or absence) of various Gal3-targeted or control antibodies, or without antibody, and protein interaction was evaluated by ELISA.
Human Gal3 protein (Acro Biosystems, GA3-H5129) was diluted in phosphate buffered saline (PBS) (Corning) to a concentration of 0.5 μg/ml and 100 ul of the diluted hGal3 was added to each well of a 96-well ELISA plate (Thermo Fisher, 44-2404-21). After incubating the plate at 4° C. overnight, the plate was washed three times with 300 μl of PBS with 0.05% TWEEN (VWR) (PBST) per well. The plate was then blocked for an hour with 200 μl of 2% bovine serum albumin (BSA) (Sigma) in PBST per well at room temperature with gentle rocking. […]
Afterwards, 50 ul of 1 ug/ml of human TIM-3 extracellular domain protein (Acro Biosystems, TM3-H5229) in 2% BSA in PBST was added to the wells. […] The plate was read using a plate reader (Molecular Devices) at absorbance of 450 nm. Percent blockade of Gal3-TIM-3 interaction was calculated as the fraction of signal obtained in the absence of antibody with the background signal subtracted.

T1 sequence (P16110 2-264 limits assumed): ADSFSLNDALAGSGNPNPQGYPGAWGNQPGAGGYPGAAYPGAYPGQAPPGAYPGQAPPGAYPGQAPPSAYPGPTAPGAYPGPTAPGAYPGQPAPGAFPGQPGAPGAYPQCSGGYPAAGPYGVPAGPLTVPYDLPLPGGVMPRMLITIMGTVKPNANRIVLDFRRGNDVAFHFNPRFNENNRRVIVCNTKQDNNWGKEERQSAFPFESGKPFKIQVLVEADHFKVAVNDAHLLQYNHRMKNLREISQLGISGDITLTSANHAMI
T2 sequence (P17931 2-250 limits assumed): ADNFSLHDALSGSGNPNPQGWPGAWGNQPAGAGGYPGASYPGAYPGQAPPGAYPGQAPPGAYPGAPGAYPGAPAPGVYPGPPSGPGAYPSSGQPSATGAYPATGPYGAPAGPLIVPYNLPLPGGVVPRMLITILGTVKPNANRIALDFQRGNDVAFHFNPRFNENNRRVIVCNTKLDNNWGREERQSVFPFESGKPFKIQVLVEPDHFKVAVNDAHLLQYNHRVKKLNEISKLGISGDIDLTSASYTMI

B1: IMT001: anti-Gal3 monoclonal antibody (Immutics); printed as mIMT001 (IMT001), murine (antibody, V domains shown)
VH: QIQLVQSGPELKKPGETVKISCKASGYTFTNYGMNWVKQAPGKGLKWMGWINTNTGEPTYVEEFKGRFAFSLETSASTAYLQINNLKNEDTATYFCAPYDNFFAYWGQGTLVTVSA
VL: DIVITQDELSNPVTSGESVSISCRSSKSLLYKDGKTYLNWFLQRPGQSPQLLIYLMSTHASGVSDRFSGSGSGTDFTLEISRVKAEDVGVYYCQQLVDYPLTFGAGTKLELK
[1]
  block of Gal3 binding to TIM-3: blocked
[2]; 10 mg/Kg i.p., day 24, vs isotype control
  reduction of tumor burden: about 33%
[2]; vs isotype control
  effect on tumor size: much reduced tumor size
[3]
  production of IL-2: enhanced the production of IL-2
[4]
  Gal3-TIM-3 binding, % of unblocked control (no antibody): 7%
